# Results reported in publication PMC1618809 (Molecular Microbiology, 2006).
# T1: PfTrx-Px2Mut1 (Asn62Tyr63 replaced by AspPhe) (Plasmodium falciparum) (UniProt Q8I5Q6)
# T1 sequence: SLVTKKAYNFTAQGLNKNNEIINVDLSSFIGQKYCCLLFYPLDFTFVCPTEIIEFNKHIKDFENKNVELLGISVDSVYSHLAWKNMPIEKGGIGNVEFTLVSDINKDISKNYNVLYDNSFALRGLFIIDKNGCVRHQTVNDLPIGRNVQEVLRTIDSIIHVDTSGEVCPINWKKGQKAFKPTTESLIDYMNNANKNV
# T2: PfTrx-Px2Mut2 (Phe139Ala140 replaced by ValSer) (Plasmodium falciparum) (UniProt Q8I5Q6)
# T2 sequence: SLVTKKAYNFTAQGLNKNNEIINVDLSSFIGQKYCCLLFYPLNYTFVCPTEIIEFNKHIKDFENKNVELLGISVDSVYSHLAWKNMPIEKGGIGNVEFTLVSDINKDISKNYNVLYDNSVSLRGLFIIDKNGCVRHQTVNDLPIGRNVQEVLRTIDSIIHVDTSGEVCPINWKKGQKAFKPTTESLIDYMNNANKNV
# Legend:
# [1] = biological target: T1, PfTrx-Px2Mut1 (Asn62Tyr63 replaced by AspPhe) (Plasmodium falciparum)
# [2] = biological target: T2, PfTrx-Px2Mut2 (Phe139Ala140 replaced by ValSer) (Plasmodium falciparum)
# AUC = biological target: the molecule itself; assay: AUC
binder,measurement,setting,value
"Plasmodium falciparum thioredoxin 2 (PfTrx2), construct PfTrx2-S3 lacking the first 47 amino acids (domain or fragment) MFKKVPRLQQNGSNIINGVNMKNTVIVLYFFAKWCQACTMQSTEMDKLQKYYGKRIYLLKVDLDKNESLARKFSVKSLPTIILLKNKTMLARKDHFVSSNDLIALIKKHL",KM^app of PfTrx-Px2Mut1 for Trx2; coupled peroxidase assay,[1],7.7 µM
same,KM^app of PfTrx-Px2Mut2 for Trx2; coupled peroxidase assay,[2],12.1 µM
"Plasmodium falciparum thioredoxin 1 (PfTrx1), cytosolic thioredoxin (natural protein) MVKIVTSQAEFDSIISQNELVIVDFFAEWCGPCKRIAPFYEECSKTYTKMVFIKVDVDEVSEVTEKENITSMPTFKVYKNGSSVDTLLGANDSALKQLIEKYAA",KM^app of PfTrx-Px2Mut1 for Trx1; coupled peroxidase assay,[1],86.2 µM
same,KM^app of PfTrx-Px2Mut2 for Trx1; coupled peroxidase assay,[2],78.8 µM
"Plasmodium falciparum mitochondrial peroxiredoxin (PfTrx-Px2), recombinant protein from construct pftrx-px2-2 lacking the first 19 amino acids (enzyme, UniProt Q8I5Q6 20-216, looked up) SLVTKKAYNFTAQGLNKNNEIINVDLSSFIGQKYCCLLFYPLNYTFVCPTEIIEFNKHIKDFENKNVELLGISVDSVYSHLAWKNMPIEKGGIGNVEFTLVSDINKDISKNYNVLYDNSFALRGLFIIDKNGCVRHQTVNDLPIGRNVQEVLRTIDSIIHVDTSGEVCPINWKKGQKAFKPTTESLIDYMNNANKNV",stoichiometry N,AUC,10
